In general, Kd refers to a measure of binding affinity in units of concentration. Read a low Kd as tighter binding. As a reminder, the EC50 (read off the curve) is the concentration needed to bring the measured effect to its halfway point. High values mean a less potent agent, low ones a more potent agent.

Experiment [1] addresses human CD3 (human, UniProt P07766 23-126). The experiment in a line: binding kinetics sensorgram (RU against time), panel labelled hCD3.
Experiment [2] has as its target T1, B7-H3 on A498 and JIMT-1 target cells (UniProt Q5ZPR3 29-534, limits assumed).
T1 sequence (looked up): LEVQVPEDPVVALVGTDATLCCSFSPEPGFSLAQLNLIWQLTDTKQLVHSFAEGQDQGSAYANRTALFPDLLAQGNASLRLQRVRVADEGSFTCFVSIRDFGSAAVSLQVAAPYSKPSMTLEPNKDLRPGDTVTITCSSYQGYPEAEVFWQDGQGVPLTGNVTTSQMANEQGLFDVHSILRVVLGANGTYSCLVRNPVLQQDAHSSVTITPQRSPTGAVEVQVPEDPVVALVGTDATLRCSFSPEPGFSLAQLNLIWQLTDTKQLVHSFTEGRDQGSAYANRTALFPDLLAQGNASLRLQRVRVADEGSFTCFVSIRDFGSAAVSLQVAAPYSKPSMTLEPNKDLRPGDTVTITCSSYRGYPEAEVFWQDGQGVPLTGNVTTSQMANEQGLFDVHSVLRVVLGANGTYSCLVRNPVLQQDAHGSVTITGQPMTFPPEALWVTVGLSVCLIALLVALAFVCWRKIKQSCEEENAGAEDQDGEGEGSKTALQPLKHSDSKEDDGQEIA
The experiment in a line: cell-based or functional assay.

Experiment [3] addresses T1, B7-H3 on A498 and JIMT-1 target cells. Nature of the experiment: cell-based or functional assay. This is another data set of the same source.
Experiment [4] concerns the target T2, CD8 on human T cells (PBMC) (human, UniProt P01732 22-235).
T2 construct: whole, on cells; The CD8+ (CD5+ CD4-) cells also carry CD3; also called CD5+ CD4- gated PBMC; CD8+ T cells
Nature of the experiment: flow cytometry, binding to human CD5+/CD4- cells (bear CD8 and CD3) (MFI). (In general: Flow cytometry measures light scatter and fluorescence of single cells or particles in a stream.)

Experiment [5] addresses T2, CD8 on human T cells (PBMC). The experiment in a line: flow cytometry on human PBMC, CD5+/CD4- gated cells (bear CD8 and CD3), detection PE anti-human Fc (MFI).
Method: 50 μL (4×10⁶ cells/mL) of well-mixed cells in FACS buffer containing 0.01% sodium azide were then added into corresponding wells and mixed thoroughly using a pipette. The plate was incubated in the dark for about 45 minutes at 2-8° C. At the end of the incubation, the cells were washed twice by adding 300 μL of FACS buffer to each well, centrifuging the plate at 1,200 rpm for 5 minutes, and discarding the supernatant. The cell pellets were re-suspended in 100 μL mixture of PE-conjugated goat anti-Human Fcγ 1:500 diluted, CD5-APC and CD4-PerCP5.5 in FACS buffer containing 0.01% sodium azide, and incubated in the dark for about 45 minutes at 2-8° C. At the end of the incubation, the cells were washed, re-suspended with FACS buffer, and analyzed with a BD Caliber flow cytometer. Cells were gated to CD5⁺ CD4⁺ (FIG. 9A) or CD5⁺ CD4⁻ (FIG. 9B).
The target is the same in experiment [6]. Nature of the experiment: flow cytometry on human PBMC, CD5+/CD4- gated cells (bear CD8 and CD3), detection anti-human Fc (MFI).
The target in experiment [7] is HIV env on Jurkat 522 FY cells (HIV). Nature of the experiment: cell-based or functional assay.
Experiment [8] addresses T2, CD8 on human T cells (PBMC). Nature of the experiment: flow cytometry on human PBMC, CD5+/CD4- gated cells (bear CD8 and CD3), detection anti-human Fc (MFI). The source holds these as a separate data set.
Method: Human blood was lysed with ACK lysing buffer, washed 2× with PBS and re-suspended in FACS buffer contained 10% Human AB serum and incubated at room temperature for 20 minutes. Thereafter, the cells were pelleted by centrifugation and re-suspended (4×10⁶ cells/mL) in FACS buffer. 50 μL of serial titrated Tri-Specific Binding Molecules were added into wells of a 96-well deep plate. 50 μL of the cells (4×10⁶ cells/mL) well-mixed cells in FACS buffer containing 0.01% sodium azide were then added into corresponding wells and mixed thoroughly using a pipette. The plate was incubated in the dark for about 45 minutes at 2-8° C. At the end of incubation, the cells were washed twice by adding 300 μL of FACS buffer to each well, the plate was centrifuged at 1,200 rpm for 5 minutes, and the supernatant was discarded. The cell pellets were re-suspended in 100 μL mixture of goat anti-Human IgG Fcγ-PE, CD5-APC and CD4-PerCP5.5 prepared in FACS buffer containing 0.01% sodium azide, and the cells were incubated in the dark for about 45 minutes at 2-8° C. At the end of the incubation, the cells were washed, re-suspended with FACS buffer, and analyzed with a BD Caliber flow cytometer.
For experiment [9], the target named is HIV env on Jurkat 522 FY cells (HIV). The experiment in a line: cell-based or functional assay. The source holds these as a separate data set.

T2 sequence (P01732 22-235): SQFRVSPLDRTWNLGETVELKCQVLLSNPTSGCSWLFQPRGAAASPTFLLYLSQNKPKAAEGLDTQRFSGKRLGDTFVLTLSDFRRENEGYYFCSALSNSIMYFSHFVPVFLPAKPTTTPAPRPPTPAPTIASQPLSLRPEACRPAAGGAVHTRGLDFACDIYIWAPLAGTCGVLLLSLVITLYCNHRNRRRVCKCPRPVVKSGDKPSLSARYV
Sequence of human CD3 (P07766 23-126): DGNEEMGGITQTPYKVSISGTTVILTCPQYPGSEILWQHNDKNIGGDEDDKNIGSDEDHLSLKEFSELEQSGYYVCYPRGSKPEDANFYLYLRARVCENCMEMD

B1: DART molecule having the CD3 mAb 2 Fast Binding Domain (bispecific antibody, V domains shown)
VH: EVQLVESGGGLVQPGGSLRLSCAASGFTFSTYAMNWVRQAPGKGLEWVGRIRSKYNNYATYYADSVKGRFTISRDDSKNSLYLQMNSLKTEDTAVYYCVRHKNFGNSYVTWFAYWGQGTLVTVSS
VL: QAVVTQEPSLTVSPGGTVTLTCRSSTGAVTTSNYANWVQQKPGQAPRGLIGGTNKRAPWTPARFSGSLLGGKAALTITGAQAEDEADYYCALWYSNLWVFGGGTKLTVLG
notes: also called anti-human CD3 mAb 2 Fast
Regarding B1, in experiment [1], the affinity, expressed as Kd, was 13.9 nM.

B2: B7-H3 mAb 1/CD3 mAb 2/CD8 mAb 1 Tri-Specific Binding Molecule (other)
chain 1: DIQMTQSPSSLSASVGDRVTITCRASQDISNYLNWYQQKPGKAPKLLIYYTSRLHSGVPSRFSGSGSGTDFTLTISSLQPEDIATYYCQQGNTLPPTFGGGTKLEIKGGGSGGGGEVQLVESGGGLVQPGGSLRLSCAASGFTFSTYAMNWVRQAPGKGLEWVGRIRSKYNNYATYYADSVKDRFTISRDDSKNSLYLQMNSLKTEDTAVYYCVRHGNFGNSYVSWFAYWGQGTLVTVSSGGCGGGEVAALEKEVAALEKEVAALEKEVAALEKGGGDKTHTCPPCPAPEAAGGPSVFLFPPKPKDTLMISRTPEVTCVVVDVSHEDPEVKFNWYVDGVEVHNAKTKPREEQYNSTYRVVSVLTVLHQDWLNGKEYKCKVSNKALPAPIEKTISKAKGQPREPQVYTLPPSREEMTKNQVSLWCLVKGFYPSDIAVEWESNGQPENNYKTTPPVLDSDGSFFLYSKLTVDKSRWQQGNVFSCSVMHEALHNHYTQKSLSLSPGK
chain 2: QAVVTQEPSLTVSPGGTVTLTCRSSTGAVTTSNYANWVQQKPGQAPRGLIGGTNKRAPWTPARFSGSLLGGKAALTITGAQAEDEADYYCALWYSNLWVFGGGTKLTVLGGGGSGGGGQVQLVQSGAEVKKPGASVKVSCKASGYTFTSYWMQWVRQAPGQGLEWMGTIYPGDGDTRYTQKFKGRVTITADKSTSTAYMELSSLRSEDTAVYYCARRGIPRLWYFDVWGQGTTVTVSSGGCGGGKVAALKEKVAALKEKVAALKEKVAALKE
heavy: EVQLQQSGAELVKPGASVKLSCTASGFNIKDTYIHFVRQRPEQGLEWIGRIDPANDNTLYASKFQGKATITADTSSNTAYMHLCSLTSGDTAVYYCGRGYGYYVFDHWGQGTTLTVSSASTKGPSVFPLAPSSKSTSGGTAALGCLVKDYFPEPVTVSWNSGALTSGVHTFPAVLQSSGLYSLSSVVTVPSSSLGTQTYICNVNHKPSNTKVDKRVEPKSCDKTHTCPPCPAPEAAGGPSVFLFPPKPKDTLMISRTPEVTCVVVDVSHEDPEVKFNWYVDGVEVHNAKTKPREEQYNSTYRVVSVLTVLHQDWLNGKEYKCKVSNKALPAPIEKTISKAKGQPREPQVYTLPPSREEMTKNQVSLSCAVKGFYPSDIAVEWESNGQPENNYKTTPPVLDSDGSFFLVSKLTVDKSRWQQGNVFSCSVMHEALHNRYTQKSLSLSPGK
light: DVQINQSPSFLAASPGETITINCRTSRSISQYLAWYQEKPGKTNKLLIYSGSTLQSGIPSRFSGSGSGTDFTLTISGLEPEDFAMYYCQQHNENPLTFGAGTKLELRRTVAAPSVFIFPPSDEQLKSGTASVVCLLNNFYPREAKVQWKVDNALQSGNSQESVTEQDSKDSTYSLSSTLTLSKADYEKHKVYACEVTHQGLSSPVTKSFNRGEC
notes: Four different polypeptide chains covalently complexed, with Fc Domain
As for B2, in [2], the “LDH EC50 (pM), A498 cells” value worked out at 4 pM; the “LDH EC50 (pM), JIMT-1 cells” value is 0.4 pM; the “Luciferase EC50 (pM), JIMT-1 cells” value was 0.6 pM. In experiment [3], the “EC50 (nM) of killing, CD4+ effector cells, JIMT1-luc target cells, E:T 5:1” value came out at 0.0721 nM; the “EC50 (nM) of killing, CD8+ effector cells, JIMT1-luc target cells, E:T 5:1” value was determined as 0.0054 nM; the “EC50 (nM) of killing, PanT effector cells, JIMT1-luc target cells, E:T 5:1” value amounted to 0.0082 nM. Further, in [4], the “EC50 (read off the curve)” value is roughly 2 nM. Moreover, in experiment [5], the concentration for a half-maximal effect (EC50 (read off the curve)) is roughly 2 nM. Besides, the “EC50 (read off the curve)” value in [6] is roughly 2 nM.

B3: HIV mAb 2/CD3 mAb 2/CD8 mAb 1 Tri-Specific Binding Molecule (other)
chain 1: QSALTQPPSASGSPGQSVTISCTGTSSDVGGYNYVSWYQHHPGKAPKLIISEVNNRPSGVPDRFSGSKSGNTASLTVSGLQAEDEAEYYCSSYTDIHNFVFGGGTKLTVLGGGSGGGGEVQLVESGGGLVQPGGSLRLSCAASGFTFSTYAMNWVRQAPGKGLEWVGRIRSKYNNYATYYADSVKGRFTISRDDSKNSLYLQMNSLKTEDTAVYYCVRHGNFGNSYVSWFAYWGQGTLVTVSSASTKGEVAACEKEVAALEKEVAALEKEVAALEKGGGDKTHTCPPCPAPEAAGGPSVFLFPPKPKDTLMISRTPEVTCVVVDVSHEDPEVKFNWYVDGVEVHNAKTKPREEQYNSTYRVVSVLTVLHQDWLNGKEYKCKVSNKALPAPIEKTISKAKGQPREPQVYTLPPSREEMTKNQVSLWCLVKGFYPSDIAVEWESNGQPENNYKTTPPVLDSDGSFFLYSKLTVDKSRWQQGNVFSCSVMHEALHNHYTQKSLSLSPGK
chain 2: QAVVTQEPSLTVSPGGTVTLTCRSSTGAVTTSNYANWVQQKPGQAPRGLIGGTNKRAPWTPARFSGSLLGGKAALTITGAQAEDEADYYCALWYSNLWVFGGGTKLTVLGGGGSGGGGQVQLQESGPGLVKPSQTLSLSCTVSGGSSSSGAHYWSWIRQYPGKGLEWIGYIHYSGNTYYNPSLKSRITISQHTSENQFSLKLNSVTVADTAVYYCARGTRLRTLRNAFDIWGQGTLVTVSSASTKGKVAACKEKVAALKEKVAALKEKVAALKE
heavy: EVQLQQSGAELVKPGASVKLSCTASGFNIKDTYIHFVRQRPEQGLEWIGRIDPANDNTLYASKFQGKATITADTSSNTAYMHLCSLTSGDTAVYYCGRGYGYYVFDHWGQGTTLTVSSASTKGPSVFPLAPSSKSTSGGTAALGCLVKDYFPEPVTVSWNSGALTSGVHTFPAVLQSSGLYSLSSVVTVPSSSLGTQTYICNVNHKPSNTKVDKRVEPKSCDKTHTCPPCPAPEAAGGPSVFLFPPKPKDTLMISRTPEVTCVVVDVSHEDPEVKFNWYVDGVEVHNAKTKPREEQYNSTYRVVSVLTVLHQDWLNGKEYKCKVSNKALPAPIEKTISKAKGQPREPQVYTLPPSREEMTKNQVSLSCAVKGFYPSDIAVEWESNGQPENNYKTTPPVLDSDGSFFLVSKLTVDKSRWQQGNVFSCSVMHEALHNRYTQKSLSLSPG
light: DVQINQSPSFLAASPGETITINCRTSRSISQYLAWYQEKPGKTNKLLIYSGSTLQSGIPSRFSGSGSGTDFTLTISGLEPEDFAMYYCQQHNENPLTFGAGTKLELRRTVAAPSVFIFPPSDEQLKSGTASVVCLLNNFYPREAKVQWKVDNALQSGNSQESVTEQDSKDSTYSLSSTLTLSKADYEKHKVYACEVTHQGLSSPVTKSFNRGEC
Regarding B3, in experiment [7], the “EC50 nM, % cytotoxicity (LDH), Jurkat Cells 522FY, E/T = 5:1” value was 0.00032 nM and the “EC50 nM, % cytotoxicity (LDH), Jurkat Cells 522FY, E/T = 10:1” value amounted to 0.00026 nM. The concentration for a half-maximal effect (EC50 (read off the curve)) in experiment [8] was roughly 0.6 nM. Moreover, in experiment [9], the “EC50, nM, % cytotoxicity (LDH), Jurkat Cells 522FY, CD4 effector cells” value is 0.45 nM; the “EC50, nM, % cytotoxicity (LDH), Jurkat Cells 522FY, CD8 effector cells” value came out at 0.0004 nM; the “EC50, nM, % cytotoxicity (LDH), Jurkat Cells 522FY, Pan T effector cells” value was 0.0015 nM.

(Values after patent publication US20200207850A1 (MacroGenics, published 2020).)
